Substitutions are numbered along the chain they refer to. In names and notes the source's numbering stands. Blank lines part the entries; values can stand above or below the binder they belong to.
T1: Spy_(29-124) (Escherichia coli K-12 substr. MG1655, UniProt P77754 52-147)
T1 construct: [15N]-labeled in the NMR titrations; also called termini-free Spy; source: E. coli BL21 (DE3), purified (Ni-NTA, cation exchange, SEC); not shown: His6, N-terminal, cleaved; SUMO, N-terminal, cleaved
T1 sequence (looked up): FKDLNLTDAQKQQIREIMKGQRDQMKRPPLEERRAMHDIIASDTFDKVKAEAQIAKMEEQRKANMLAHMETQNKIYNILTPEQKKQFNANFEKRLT

T2: Spy_(29-124) (UniProt P77754 52-147)
T2 construct: structured region of Spy, both disordered termini deleted; residue n is n+23 in P77754; Isotope-labelled ([15N], [13C,15N] or [2H,13C,15N]) in the NMR experiments; source: E. coli BL21 (DE3), purified (Ni-NTA, cation exchange, SEC); not shown: His6-SUMO, N-terminal, cleaved
T2 sequence (looked up): T1 sequence (looked up)

T3: Spy wild type (Spy_(1-138)) (UniProt P77754 24-161)
T3 construct: Spy, ATP-independent periplasmic chaperone; also called WT; wt; source: E. coli BL21 (DE3), purified (Ni-NTA, cation exchange, SEC); not shown: His6, N-terminal, cleaved; SUMO, N-terminal, cleaved
T3 sequence (looked up): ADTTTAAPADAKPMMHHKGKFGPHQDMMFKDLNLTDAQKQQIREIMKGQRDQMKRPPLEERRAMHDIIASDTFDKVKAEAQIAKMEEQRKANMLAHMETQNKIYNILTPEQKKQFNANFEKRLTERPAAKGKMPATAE

T4: Im7 H40W L53A I54A (UniProt Q03708 1-87, H40W | L53A | I54A, biotin (EZ-link NHS-biotin, 1:1 molar ratio of biotin to protein))
T4 construct: Im7 (colicin E7 immunity protein), partially folded mutant; also called Im7AAW; source: purified by a similar procedure to Spy
T4 sequence: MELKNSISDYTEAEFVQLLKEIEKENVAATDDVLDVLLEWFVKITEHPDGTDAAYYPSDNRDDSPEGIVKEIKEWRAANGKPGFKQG

T5: Spy wild type (Escherichia coli K-12 substr. MG1655, UniProt P77754 24-161)
T5 construct: also called WT; source: E. coli BL21 (DE3), purified (Ni-NTA, cation exchange, SEC); not shown: His6, N-terminal, cleaved; SUMO, N-terminal, cleaved
T5 sequence (looked up): T3 sequence (looked up)

T6: Spy (GGGS)2 (Escherichia coli K-12 substr. MG1655, UniProt P77754 24-161, (GGGS)2 linker inserted between D26 and M27)
T6 construct: also called Spy variant with a (GGGS)2 linker inserted between D26 and M27; source: E. coli BL21 (DE3), purified (Ni-NTA, cation exchange, SEC); not shown: His6, N-terminal, cleaved; SUMO, N-terminal, cleaved
T6 sequence (looked up): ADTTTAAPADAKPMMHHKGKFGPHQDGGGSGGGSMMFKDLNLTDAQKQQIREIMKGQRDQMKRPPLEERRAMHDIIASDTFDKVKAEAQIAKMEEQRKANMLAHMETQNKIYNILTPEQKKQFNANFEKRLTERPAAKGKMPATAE

B1: Nt-pep (peptide)
peptide: ADTTTAAPADAKPMMHHKGKFGPHQDMM
notes: Unlabeled peptide; also called Nt-pep WT; peptide corresponding to Spy residues 1-28
B2: Nt-pep (peptide, UniProt P77754 24-51, looked up)
peptide: ADTTTAAPADAKPMMHHKGKFGPHQDMM
notes: disordered N terminus of Spy as a free peptide; residue n is n+23 in P77754; also called peptide corresponding to Spy residues 1-28
B3: carboxymethylated α-lactalbumin (natural protein, bovine, UniProt P00711 20-142, looked up)
chain: EQLTKCEVFRELKDLKGYGGVSLPEWVCTTFHTSGYDTQAIVQNNDSTEYGLFQINNKIWCKDDQNPHSSNICNISCDKFLDDDLTDDIMCVKKILDKVGINYWLAHKALCSEKLDQWLCEKL
modifications: carboxymethylated (residues not stated); biotin (EZ-link NHS-biotin, 1:1 molar ratio of biotin to protein)
notes: α-lactalbumin, carboxymethylated and thereby unfolded; also called unfolded α-LA
B4: Im7 L18A L19A L37A (natural protein)
chain: T4 sequence with L18A, L19A, L37A, W40H, A53L, A54I
modifications: biotin (EZ-link NHS-biotin, 1:1 molar ratio of biotin to protein)
notes: Im7 (colicin E7 immunity protein) with L18A L19A L37A; also called Im7A3; unfolded client; source: purified by a similar procedure to Spy
B5: Im7 wild type (natural protein)
chain: T4 sequence with W40H, A53L, A54I
modifications: biotin (EZ-link NHS-biotin, 1:1 molar ratio of biotin to protein)
notes: Im7 (colicin E7 immunity protein), wild type; also called Im7 WT; Im7WT; source: purified by a similar procedure to Spy
B6: Spy_(21-130) (domain or fragment, UniProt P77754 44-153, looked up)
chain: FGPHQDMMFKDLNLTDAQKQQIREIMKGQRDQMKRPPLEERRAMHDIIASDTFDKVKAEAQIAKMEEQRKANMLAHMETQNKIYNILTPEQKKQFNANFEKRLTERPAAK
notes: previously characterized truncation mutant of Spy; residue n is n+23 in P77754; source: E. coli BL21 (DE3), purified (Ni-NTA, cation exchange, SEC); not shown: His6-SUMO, N-terminal, cleaved
B7: Spy_(29-138) (domain or fragment, UniProt P77754 52-161, looked up)
chain: FKDLNLTDAQKQQIREIMKGQRDQMKRPPLEERRAMHDIIASDTFDKVKAEAQIAKMEEQRKANMLAHMETQNKIYNILTPEQKKQFNANFEKRLTERPAAKGKMPATAE
notes: source: E. coli BL21 (DE3), purified (Ni-NTA, cation exchange, SEC); not shown: His6, N-terminal, cleaved; SUMO, N-terminal, cleaved
B8: Im7 H40W L53A I54A (natural protein)
chain: T4 sequence
modifications: biotin (EZ-link NHS-biotin, 1:1 molar ratio of biotin to protein)
notes: Im7, colicin E7 immunity protein (gene ceiE7), partially folded mutant H40W L53A I54A; The methods say only that Im7 variants were purified by a similar procedure to Spy (His6-SUMO tag removed); also called Im7AAW; biotin-labeled Im7AAW; source: purified by a similar procedure to Spy

Legend:
Conditions in all cases: both partners purified
Spy_(29-124) [1] = target: T1, Spy_(29-124); assay: NMR titration; 0.1 mM [15N]-Spy29-124 titrated with unlabeled peptide at Spy29-124:peptide 1:2 to 1:40; 1H-15N HSQC, 40 mM HEPES-NaOH, 150 mM NaCl, pH 7.5, 25 °C; global one-site fit of the CSPs of M64, H65, D66, I67, A69, K113, N116, A117, K121; saturation not reached, Kd only an estimate
Spy_(29-124) [2] = target: T2, Spy_(29-124); assay: NMR titration; 0.1 mM [15N]-Spy_(29-124) with unlabeled peptide at molar ratios 1:2 to 1:40; 2D 1H-15N HSQC; 40 mM HEPES-NaOH, 150 mM NaCl, pH 7.5, 25 °C; one-site binding model
[3] = target: T3, Spy wild type (Spy_(1-138)); assay: BLI; Octet RED96; client biotinylated and loaded on streptavidin sensors; Spy or Spy variant in solution at 0.25, 0.5, 1, 1.5 and 2 μM; 40 mM HEPES, 150 mM NaCl, pH 7.5; Kd calculated as koff/kon
[4] = target: T3, Spy wild type (Spy_(1-138)); assay: as above; remark: listed apart in the source
[5] = target: T3, Spy wild type (Spy_(1-138)); assay: as above; remark: listed apart in the source
Spy_(29-138) [6] = target: B7; assay: as above
Spy_(29-138) [7] = target: B7; assay: as above; remark: listed apart in the source
Spy_(29-138) [8] = target: B7; assay: as above; remark: listed apart in the source
Im7 H40W L53A I54A = target: T4, Im7 H40W L53A I54A; assay: BLI; Octet RED96; biotinylated client loaded on streptavidin sensors; Spy or Spy variants at 0.25, 0.5, 1, 1.5 and 2 μM in 40 mM HEPES, 150 mM NaCl, pH 7.5; Kd = koff/kon
[9] = target: B3; assay: BLI; Octet RED96; client biotinylated and loaded on streptavidin sensors; Spy or Spy variant in solution at 0.25, 0.5, 1, 1.5 and 2 μM; 40 mM HEPES, 150 mM NaCl, pH 7.5; Kd calculated as koff/kon
[10] = target: B3; assay: as above; remark: listed apart in the source
[11] = target: B3; assay: as above; remark: listed apart in the source
Spy wild type = target: T5, Spy wild type; assay: BLI; Octet RED96; biotinylated client loaded on streptavidin sensors, dipped into Spy or Spy variants (0.25, 0.5, 1, 1.5, 2 uM) in 40 mM HEPES, 150 mM NaCl, pH 7.5; kon from kobs against [Spy], Kd = koff/kon
Spy (GGGS)2 = target: T6, Spy (GGGS)2; assay: as above

Binder: B1
Kd (Spy_(29-124) [1]): 4740 ± 160 µM

Kd (Spy_(29-124) [1]): 6330 ± 250 µM
Binder: ADTTTAAPADAKPMMHHKGKFGPHQKMM (peptide, UniProt P77754 24-51, looked up, Spy of E. coli, residues 1-28 with D26K) [Nt-pep D26K]

Kd (Spy_(29-124) [1]): 7040 ± 280 µM
Binder: ADTTTAAPADAKPMMHHKGKFGPHQRMM (peptide, UniProt P77754 24-51, looked up, Spy of E. coli, residues 1-28 with D26R) [Nt-pep D26R]

Binder: B2
Kd (Spy_(29-124) [2]): 4700 µM

Binder: B3
Kd [3]: 3.36 µM | kon [4]: 216000 M⁻¹ s⁻¹ | koff [5]: 0.726 s⁻¹

Binder: B4
Kd [3]: 0.67 µM | Kd (Spy_(29-138) [6]): 0.34 µM | kon [4]: 299000 M⁻¹ s⁻¹ | kon (Spy_(29-138) [7]): 254000 M⁻¹ s⁻¹ | koff [5]: 0.199 s⁻¹ | koff (Spy_(29-138) [8]): 0.087 s⁻¹

Binder: B5
Kd [3]: 0.47 µM | Kd (Spy_(29-138) [6]): 0.27 µM | kon [4]: 244000 M⁻¹ s⁻¹ | kon (Spy_(29-138) [7]): 178000 M⁻¹ s⁻¹ | koff [5]: 0.114 s⁻¹ | koff (Spy_(29-138) [8]): 0.048 s⁻¹

Binder: B6
fold increase in koff (against Spy wild type) (Im7 H40W L53A I54A): ~2 fold

Binder: B7
Kd [9]: 0.4 µM | kon [10]: 145000 M⁻¹ s⁻¹ | koff [11]: 0.0584 s⁻¹

Binder: B8
Kd (Spy wild type): 0.64 µM | koff (Spy wild type): 0.178 s⁻¹ | kon (Spy wild type): 276000 M⁻¹ s⁻¹ | Kd (Spy (GGGS)2): 0.53 µM | koff (Spy (GGGS)2): 0.123 s⁻¹ | kon (Spy (GGGS)2): 234000 M⁻¹ s⁻¹

Source: article PMC9122904, “Insights into the client protein release mechanism of the ATP-independent chaperone Spy” (Nature Communications, 2022)
